Test results published in US20140086913A1 (Gilead, published 2014).

T1: mouse DDR1 stably expressed on HEK293 cells (mouse, UniProt Q03146 20-911)
T1 construct: whole, on cells; also called murine DDR1
T1 sequence (looked up): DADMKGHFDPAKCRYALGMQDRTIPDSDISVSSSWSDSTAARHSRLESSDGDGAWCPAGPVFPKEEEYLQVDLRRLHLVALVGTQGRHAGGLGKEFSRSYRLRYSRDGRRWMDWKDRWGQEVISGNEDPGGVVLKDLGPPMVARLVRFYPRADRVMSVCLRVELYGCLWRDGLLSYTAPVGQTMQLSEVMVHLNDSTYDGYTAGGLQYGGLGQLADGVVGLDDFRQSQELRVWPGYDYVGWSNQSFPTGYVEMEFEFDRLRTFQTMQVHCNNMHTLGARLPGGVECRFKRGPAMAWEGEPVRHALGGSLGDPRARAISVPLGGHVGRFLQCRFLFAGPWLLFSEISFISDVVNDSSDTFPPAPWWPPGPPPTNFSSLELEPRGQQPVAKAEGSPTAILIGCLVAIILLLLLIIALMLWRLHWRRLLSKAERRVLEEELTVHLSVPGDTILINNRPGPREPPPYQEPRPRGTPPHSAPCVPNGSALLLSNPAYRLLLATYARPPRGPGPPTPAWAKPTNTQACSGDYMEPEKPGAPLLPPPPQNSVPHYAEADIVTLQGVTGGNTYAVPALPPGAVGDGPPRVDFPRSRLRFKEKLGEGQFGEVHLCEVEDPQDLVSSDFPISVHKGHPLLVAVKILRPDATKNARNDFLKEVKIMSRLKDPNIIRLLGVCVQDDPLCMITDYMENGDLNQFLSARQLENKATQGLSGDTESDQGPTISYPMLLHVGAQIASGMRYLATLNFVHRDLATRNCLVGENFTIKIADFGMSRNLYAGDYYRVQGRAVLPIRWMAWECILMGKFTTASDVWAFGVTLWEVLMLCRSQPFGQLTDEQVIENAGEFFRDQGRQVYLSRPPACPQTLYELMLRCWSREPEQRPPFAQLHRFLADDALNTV

T2: mouse ECD-DDR1-Fc (mouse; human, UniProt Q03146 22-414)
T2 construct: also called mouse DDR1-ECD; wild-type mouse DDR1-ECD; not shown: human IgG1 Fc of the vector pFuse-hIgG1-Fc1 (Invivogen)
T2 sequence: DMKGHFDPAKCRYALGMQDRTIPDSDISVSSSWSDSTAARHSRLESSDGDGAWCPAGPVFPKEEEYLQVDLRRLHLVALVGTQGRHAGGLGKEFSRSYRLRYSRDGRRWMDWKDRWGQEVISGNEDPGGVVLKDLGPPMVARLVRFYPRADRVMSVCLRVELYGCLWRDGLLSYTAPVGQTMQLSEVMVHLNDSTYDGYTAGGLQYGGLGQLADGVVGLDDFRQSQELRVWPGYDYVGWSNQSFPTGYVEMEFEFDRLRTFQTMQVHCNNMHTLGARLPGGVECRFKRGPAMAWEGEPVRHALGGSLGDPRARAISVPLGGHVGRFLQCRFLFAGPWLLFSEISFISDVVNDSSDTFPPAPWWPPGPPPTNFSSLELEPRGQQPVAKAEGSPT


Assays:
[1] = biological target: DDR1 stably over-expressed in HCT-116 tumor cells, Q08345; test: cell-based or functional assay
[2] = biological target: DDR1 with a ProLink Tag (PK) in engineered U20S cells (DiscoveRx), Q08345; test: cell-based or functional assay
[3] = biological target: T3, DDR1ECD-Fc (R&D Systems, Catalog #2396-DR) (human, UniProt Q08345 21-416); test: ELISA
T3 construct: range 21-416; construct as described for the bought immunogen; also called human ECD-DDR1-Fc; Fc-ECD-DR1; not shown: human IgG1, Pro100-Lys330

[4] = biological target: T1, mouse DDR1 stably expressed on HEK293 …; test: flow cytometry, column without head (taken as HEK293/mouse DDR1)
Procedure: Additional monoclonal antibodies were obtained from individual hybridomas in Example 1 and were characterized for their properties.
Cells were cultured in DMEM with 10% FBS and 0.8 mg/mL hygromycin. When cells reached 60-80% confluence, they were centrifuged at 1,200 rpm for 5 minutes, suspended in FACS buffer (1×PBS, 1% BSA), and aliquoted into a 96-well plate at 1×10⁶ cells per well. The anti-DDR1 monoclonal antibodies or appropriate isotype controls at 2 μg per 1×10⁶ cells were added and incubated at 4° C. for 1 hr. The cells were washed twice with FACS buffer then stained with the anti-IgG-PE secondary antibody at 10 μL per well at 4° C. for 1 hr. The cells were washed again and measured for the MFI values or signals using flow cytometry (LSR Fortessa instrument, BD Biosciences). Background MFI signals from vector-only cells (i.e. no DDR1 or DDR2 expression) was subtracted from those of the cells treated with antibodies. Higher MFI values or signals indicated increased binding or specificity of the anti-DDR1 antibodies to the DDR1 on the cell surface.

[5] = biological target: human DDR1 (isoform B) stably expressed on HEK293 cells (human) (UniProt Q08345); test: flow cytometry, HEK293/human DDR1, normalized to empty-vector cells
[6] = biological target: DDR1 endogenously expressed on human cancer cell lines (T47D, HCT-116, A431) (human) (UniProt Q08345); test: cell-based or functional assay
mouse ECD-DDR1-Fc = biological target: T2, mouse ECD-DDR1-Fc; test: ELISA, coated antigen, apparent KD
In short: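 Plates coated overnight at 4° C with 2 μg/mL purified tagged DDR1 ECD protein, BSA-blocked; serially diluted murine anti-DDR1 mAbs bound 1 hr at room temperature, detected with anti-mouse IgG-HRP and TMB (OD 450). Apparent KD taken as C-parameter of 4-parameter logistic fit of OD versus antibody concentration.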

T3 sequence (Q08345 other isoform, or with tags, fused parts or gaps limits assumed): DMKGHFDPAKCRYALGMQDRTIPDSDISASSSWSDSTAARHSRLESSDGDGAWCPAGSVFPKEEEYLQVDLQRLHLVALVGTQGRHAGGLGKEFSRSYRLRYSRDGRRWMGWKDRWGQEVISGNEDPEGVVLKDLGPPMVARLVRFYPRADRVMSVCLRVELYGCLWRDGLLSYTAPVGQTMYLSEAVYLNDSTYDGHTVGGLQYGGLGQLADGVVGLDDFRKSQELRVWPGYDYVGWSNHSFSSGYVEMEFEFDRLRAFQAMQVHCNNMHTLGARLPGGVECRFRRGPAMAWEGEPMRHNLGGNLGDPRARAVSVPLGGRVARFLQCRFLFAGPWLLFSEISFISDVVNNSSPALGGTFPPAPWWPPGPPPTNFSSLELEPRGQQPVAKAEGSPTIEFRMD

Binder | EC50, NFkB luciferase reporter (HCT-116, collagen II) [1] [nM] | EC50, collagen-mediated relocalization of DDR1 (HCT-116) [1] [nM] | EC90, NFkB luciferase reporter (HCT-116, collagen II) [1] [nM] | Mean EC50, DDR1 Tyr513 phosphorylation assay (U20S) [2] [nM] | Kd [3] [nM] | MFI [4] [MFI] | MFI [5] [MFI] | EC50, DDR1 phospho-specific ELISA (T47D) [6] [nM] | EC50, cluster formation assay (A431 cells) [6] [nM] | Maximal inhibition, DDR1 phospho-specific ELISA (T47D) [6] [%] | NPI of cluster formation at 66 nM (A431 cells) [6] [%] | Kd (mouse ECD-DDR1-Fc) [nM]
AB2039 (antibody, V domains shown, mouse hybridoma mAb; also called AB0039) VH: EVQLVESGGGLVQPGGSLKFSCAASGFTFSSYGMSWVRQTPDKRLELVAIINSHGFSTYYPDSVKGRFTISRDNAKNTLYLQMSSLKSEDTAIYYCARGGYGNYGMDYWGQGTSVTVSS VL: DIVLTQSPASLAVSLGQRATISCRASESVDSYGNSFMHWYQQKVGQPPKLLIFRASNIESGIPARFSGSGSRTDFTLTINSVEADDVATYYCQQSNEAPYTFGGGTKLEIKR | 1.63 | 0.45 | 4.61 | 1.1 | 0.346 | 10500 | 8020 | 0.43 | 0.93 | 100 | 103 | 2.37
AB2010 (antibody, V domains shown, mouse hybridoma mAb) VH: QVQLKQSGPGLVQPSQSLSITCTVSGFSFTGYGIHWVRQSPGKGLEWLGVIWSGGITDYNAAFISRLSISMDSSKGQVFFKMNSLQANDTAIYYCARRSTTVVADYAMDYWGQGTSVTVSS VL: SIVMTQTPKFLLVSAGDRVTITCKASQSVSNDVAWYQQKPGQSPKLLIYYASNRYTGVPDRFTGSGYGTDFTFTINTVQAEDLAVYFCQQDYTSPLTFGAGTKLELKR | – | – | – | 7.6 | – | 7140 | – | 0.63 | 4.84 | 100 | 108 | 33.7
AB2078 (antibody, V domains shown, mouse hybridoma mAb) VH: EIQLQQSGPELVNPGASVKVSCKASGYSFTDYNMYWVKQSHGKSLEWIGYIDPYNGGTSYNQKFKGKATLTVDKSSSTAFMHLNSLTSEDSAVYYCAREYYGSRLWYFDVWGAGTAVTVSS VL: DIVMTQSPSSLAMSVGQKVTMSCKSSQSLLNRNNQKNYLAWYQQKPGQSPKLLVYFASTRESGVPDRFIGSGSGTDFTLTLSSVRAEDLAENFCQQHYSTPFTFGSGTRLEIKR | – | – | – | – | 0.374 | 24200 | 7490 | 0.39 | 1.82 | 100 | 123 | 10.9
AB2041 (antibody, V domains shown, mouse hybridoma mAb) VH: QVQLHQSGSELAKPGASVKMSCKASGYIFTTYWIHWLKQRPGQGLEWIGFINPDTDYTEYNQKFKDKATLTADKSSNTAYVQLSSLTSEDSAVYYCARGNYGYDGLVYWGLGTLVTVSA VL: SIVMTQTPKFLLVSAGDRVTITCKASQSVSTDVAWYQQKPGQSPKLLIYYASNRYTGVPDRFTGSGYGTDFTFTISTVQAEDLAVYFCQQDYNSYTFGGGTKLEIKR | 1.12 | 2.2 | 4.17 | 2.65 | 0.561 | – | 12500 | – | – | – | – | –
AB2004 (antibody, V domains shown, mouse hybridoma mAb) VH: DVHLQESGPDLVKPSQSLSLTCTVTDYSITSGYGWHWIRQFPGNKLEWMGYIHYGGSTKYNSSLKSRISITRDTSKNQFFLQLKSVTTDDTGTYYCATSGNYGFAYWGQGTLVTVSA VL: DIVLTQSPTSLAVSLGQRATMSCRASESVDDYGTSFMHWYQQKPGQPPKLLIYRASNLESGIPARFSGSGSRADFTLSINPVEPDDVATYYCQQSNEDPFTFGSGTKLEIKR | 3.7 | 1.4 | 6.95 | 1.85 | 0.154 | 9500 | 14400 | 0.43 | 2.28 | 100 | 110 | –
AB2092 (antibody, V domains shown, mouse hybridoma mAb) VH: QIQLVQSGPELKKSGETVKISCKASGYTFTDYGMNWVKQAPGKGLKWMGWINTYTGKSTYADDFKGRFAFSLETSASTTYLQITNLKNEDMATYFCARWADYFGSSYLFASWGQGTLVTVSA VL: DVLMTQTPLSLPVSLGDQASISCRSSQSIVHSDGNTYLEWYLQKPGQSPKLLIYKVSNRFSGVPDRFSGSGSGTDFTLKISRVEAEDLGIYYCFQGSHVPWTFGGGTKLEIKR | 1.13 | – | 4.73 | 2.45 | 0.287 | 22800 | 6020 | – | – | – | – | 1.19
